Laboratory results reported in patent US20240109958.

Legend:
[1] = target: lysine-less catalytically inactive UCHL5 (UniProt Q9Y5K5)
[2] = target: lysine-less catalytically inactive UCHL1 (UniProt P09936)
[3] = target: Ub vinyl sulfone HA-tagged probe (Ub-VS-HA; Cat #U-212, Boston Biochem) (UniProt P0CG48)

Row | Substance | in vitro ubiquitination assay with purified proteins (immunoblot) [1] | in vitro ubiquitination assay with purified proteins (immunoblot) [2] | modification by the suicide probe Ub-VS (immunoblot) [3]
1 | UBE2W (Cat #E2-740, Boston Biochem) | UBE2W can monoubiquitinate lysine-less versions of both UCHL1 and UCHL5 | UBE2W can monoubiquitinate lysine-less versions of both UCHL1 and UCHL5 | 
2 | N-terminally ubiquitinated mimetic Ub^G76V_UCHL5 |  |  | Ub^G76V_UCHL5 rapidly reacted with Ub-VS
3 | N-terminally ubiquitinated mimetic Ub^G76V_UCHL1 |  |  | Ub^G76V_UCHL1 remained largely unmodified
